Assay results: patent US20250076311A1 (Chugai, published 2025)
One block for each binder: values may come before it.

Assays:
[1] = molecular target: T1, GST-hMSTN 41-140aa (human, UniProt O14793 41-140); assay: Western blot with the antibody as probe on GST-tagged 100-amino-acid fragments of the human latent myostatin propeptide expressed in E. coli BL21 (lanes 1-8), GST control (lane 9) and human latent myostatin 100 ng (lane 10)
T1 sequence: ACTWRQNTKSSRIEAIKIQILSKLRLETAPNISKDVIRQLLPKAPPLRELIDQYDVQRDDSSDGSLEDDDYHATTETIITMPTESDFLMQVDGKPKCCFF
Text: (§1) Fragments of the N-terminal propeptide coding region of human latent myostatin were cloned into a pGEX4.1 vector so as to produce GST tagged propeptide fragments of 100 amino acid each, with 80 amino acid overlap (FIG. 22A). Protein expression was induced in transformed BL21 competent cells with Overnight Express Autoinduction System (Merck Millipore) and protein was extracted using the BUGBUSTER® protein extraction reagent (Novagen).

[2] = molecular target: T2, GST-hMSTN 101-200aa (human, UniProt A1C2U3 101-200 (Pongo pygmaeus entry)); assay: as above
T2 sequence: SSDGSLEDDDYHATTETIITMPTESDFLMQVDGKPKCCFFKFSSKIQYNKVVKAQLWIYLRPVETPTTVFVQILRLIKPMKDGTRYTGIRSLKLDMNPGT
Text: as §1

[3] = molecular target: T3, GST-hMSTN 61-160aa (human, UniProt O14793 61-160); assay: as above
T3 sequence: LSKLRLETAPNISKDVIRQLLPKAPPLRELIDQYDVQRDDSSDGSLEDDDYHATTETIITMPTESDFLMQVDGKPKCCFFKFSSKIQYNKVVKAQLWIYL
Text: as §1

[4] = molecular target: T4, GST-hMSTN 81-180aa (human, UniProt A1C2U3 81-180 (Pongo pygmaeus entry)); assay: as above
T4 sequence: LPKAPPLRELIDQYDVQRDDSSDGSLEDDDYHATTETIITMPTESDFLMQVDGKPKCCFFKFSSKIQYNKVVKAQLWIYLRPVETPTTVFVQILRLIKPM
Text: as §1

[5] = molecular target: T5, human FcγRIIb extracellular domain, His-tagged (human, UniProt P31994 43-217); assay: SPR Biacore, KD(SG1)/KD(variant)
T5 construct: also called FcgRIIb (human); not shown: C-terminal His-tag
T5 sequence: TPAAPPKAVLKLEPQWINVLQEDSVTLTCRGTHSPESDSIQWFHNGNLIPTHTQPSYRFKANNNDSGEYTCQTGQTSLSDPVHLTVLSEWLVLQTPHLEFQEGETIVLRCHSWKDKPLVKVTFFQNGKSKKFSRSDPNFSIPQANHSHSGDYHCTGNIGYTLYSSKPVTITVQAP

[6] = molecular target: T6, cynomolgus monkey FcγRIIIaS extracellular domain, His-tagged (cynomolgus monkey, UniProt Q8SPW2 21-206 at identity 1.00)); assay: SPR Biacore, KD(SG1)/KD(variant)
T6 construct: also called cyno FcγRIIIaS; cynoFcγRIIIaS; not shown: C-terminal His-tag
T6 chain: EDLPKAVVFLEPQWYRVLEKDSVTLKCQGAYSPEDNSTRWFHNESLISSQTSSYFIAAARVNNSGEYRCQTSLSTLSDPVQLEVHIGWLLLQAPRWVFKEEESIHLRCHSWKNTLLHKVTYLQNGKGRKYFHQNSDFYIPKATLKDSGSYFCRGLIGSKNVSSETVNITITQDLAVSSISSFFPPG

[7] = molecular target: T7, cynomolgus monkey FcγRIIa1 extracellular domain, His-tagged (cynomolgus monkey); assay: SPR Biacore, KD(SG1)/KD(variant)
T7 construct: also called cyno FcγRIIa1; cynoFcgRIIa1; not shown: C-terminal His-tag
T7 chain: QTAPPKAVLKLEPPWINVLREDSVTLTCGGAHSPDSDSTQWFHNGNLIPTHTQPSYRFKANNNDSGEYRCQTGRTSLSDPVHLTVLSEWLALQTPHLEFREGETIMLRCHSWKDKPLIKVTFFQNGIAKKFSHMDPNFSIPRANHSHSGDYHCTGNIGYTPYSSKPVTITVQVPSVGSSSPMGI

[8] = molecular target: T8, human FcγRIIaH extracellular domain, His-tagged (human, UniProt P12318 34-217); assay: SPR Biacore, KD(SG1)/KD(variant)
T8 construct: also called human FcγRIIa (type H); FcgRIIaH; not shown: C-terminal His-tag
T8 sequence: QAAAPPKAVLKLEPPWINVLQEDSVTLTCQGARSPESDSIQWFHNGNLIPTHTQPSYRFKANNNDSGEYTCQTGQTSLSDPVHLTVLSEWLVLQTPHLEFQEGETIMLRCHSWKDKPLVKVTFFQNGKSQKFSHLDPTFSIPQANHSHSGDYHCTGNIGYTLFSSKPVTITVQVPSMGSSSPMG

[9] = molecular target: T9, Mouse latent myostatin (mouse, UniProt O08689 26-267; O08689 268-376, limits assumed); assay: ELISA: biotinylated antigen (4 nM) on streptavidin-coated plate, antibody titrated, anti-human IgG-HRP, ABTS, OD405
T9 sequence 1: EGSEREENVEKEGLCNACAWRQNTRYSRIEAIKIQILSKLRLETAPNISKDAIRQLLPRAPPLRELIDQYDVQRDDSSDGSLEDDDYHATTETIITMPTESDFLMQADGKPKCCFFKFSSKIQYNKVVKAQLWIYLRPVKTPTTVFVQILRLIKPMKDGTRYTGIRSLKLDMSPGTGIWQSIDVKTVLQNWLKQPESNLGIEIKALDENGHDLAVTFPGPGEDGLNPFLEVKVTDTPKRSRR
T9 sequence 2: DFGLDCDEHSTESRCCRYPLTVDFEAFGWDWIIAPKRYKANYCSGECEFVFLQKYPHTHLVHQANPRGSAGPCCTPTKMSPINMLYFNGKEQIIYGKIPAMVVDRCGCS
Description: (§2) Uncoated ELISA plates (NUNC-IMMUNO plate MAXISORP surface, Nalge Nunc International) were coated with 20 μL of 50 nM streptavidin (GenScript) for 1 hour at room temperature. Plates were then washed with PBST three times and blocked with 50 μL 20% Blocking One (Nacalai Tesque) overnight. On the next day, each well of each plate was incubated with biotinylated mature myostatin, human or mouse biotinylated latent myostatin, or biotinylated recombinant mouse myostatin propeptide-Fc chimera protein (R&D Systems) at 4 nM/well/20 μL for 2 hours. After washing, 20 μL of antibody sample was added to the wells and the plates were left for 1 hour. The plates were washed and 20 μL of anti-human IgG-horseradish peroxidase (HRP) (Abcam) diluted in HEPES-buffered saline was added, and the plates were left for another hour. The plates were then washed again, and then 50 μL ABTS (KPL) was added to each well, and the plates were incubated for 1 hour.

[10] = molecular target: T10, Mature myostatin (human, UniProt O14793 267-375); assay: as above
T10 construct: Disulfide-bonded homodimer; Biotinylated in the ELISA; also called human myostatin mature form; active myostatin
T10 sequence: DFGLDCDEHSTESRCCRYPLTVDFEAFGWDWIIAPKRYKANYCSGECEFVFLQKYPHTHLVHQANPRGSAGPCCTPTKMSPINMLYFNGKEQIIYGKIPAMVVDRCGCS
Description: as §2

[11] = molecular target: T11, Human latent myostatin (human, UniProt O14793 25-266; O14793 267-375); assay: as above
T11 construct: Biotinylated in the ELISAs; also called human myostatin latent form
T11 sequence 1: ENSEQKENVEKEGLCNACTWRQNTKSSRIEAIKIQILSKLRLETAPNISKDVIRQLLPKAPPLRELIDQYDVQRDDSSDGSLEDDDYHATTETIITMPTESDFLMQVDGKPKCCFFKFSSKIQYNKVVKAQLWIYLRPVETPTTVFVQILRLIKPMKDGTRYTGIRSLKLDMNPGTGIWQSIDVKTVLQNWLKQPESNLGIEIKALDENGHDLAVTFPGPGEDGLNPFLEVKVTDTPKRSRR
T11 sequence 2: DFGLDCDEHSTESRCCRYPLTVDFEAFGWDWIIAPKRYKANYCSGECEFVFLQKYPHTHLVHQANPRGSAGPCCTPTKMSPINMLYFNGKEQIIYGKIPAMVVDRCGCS
Description: as §2

[12] = molecular target: T11, Human latent myostatin; assay: ELISA: biotinylated human latent myostatin (2 nM) on streptavidin-coated plate, antibody titrated, anti-human IgG-HRP, ABTS, OD405
Description: Uncoated ELISA plates (NUNC-IMMUNO plate MAXISORP™ surface, Nalge Nunc International) were coated with 20 μL of 50 nM streptavidin (GenScript) for 2 hour at room temperature. Plates were then washed with PBST three times and blocked with 50 μL 20% Blocking One (Nacalai Tesque) for overnight. On the next day, each well of the plates was incubated with biotinylated human latent myostatin at 2 nM/well/20 μL or biotinylated human latent GDF11 at 20 nM/well/20 μL for 2 hours. After washing, 20 μL of antibody sample was added to the wells and the plates were left for 1 hour. The plates were washed and 20 μL of anti-human IgG-horseradish peroxidase (HRP) (Abcam) diluted in HEPES-buffered saline was added, and the plates were left for another hour. The wells were washed again, and then 50 μL ABTS (KPL) was added to each well, and the plates were incubated for 1 hour.

binding result [1]: no binding | binding result [2]: no binding | binding result [3]: no binding | binding result [4]: no binding
B1: MST1573 (antibody, human IgG1, kappa, V domains shown)
VH: QSVEESGGRLVTPGTPLTLTCTVSGIDLSSSSMIWVRQAPGEGLKYIGFISKSGYTYYASWAKGRFTISKTSTTVDLKITSPTTEDTATYFCARGGYSGDWDYFTLWGPGTLVTVSS
VL: DIVMTQTPASVEAAVGGTVTIKCQASESIGNALAWYQQKPGQPPKLLIYGAFNLESGVPSRFRGSGSGTEYTLTISDLECDDAATYYCQGYFWSSSTIYAFWAFGGGTKVEIKR
notes: Constant regions as for MST1504

KD fold (SG1 = 1) [5]: 2.2 fold | KD fold (SG1 = 1) [6]: 0.62 fold
B2: M103205H795-MY068/M103202L889-SK1 (antibody, human IgG1, kappa, name in EU numbering)
heavy: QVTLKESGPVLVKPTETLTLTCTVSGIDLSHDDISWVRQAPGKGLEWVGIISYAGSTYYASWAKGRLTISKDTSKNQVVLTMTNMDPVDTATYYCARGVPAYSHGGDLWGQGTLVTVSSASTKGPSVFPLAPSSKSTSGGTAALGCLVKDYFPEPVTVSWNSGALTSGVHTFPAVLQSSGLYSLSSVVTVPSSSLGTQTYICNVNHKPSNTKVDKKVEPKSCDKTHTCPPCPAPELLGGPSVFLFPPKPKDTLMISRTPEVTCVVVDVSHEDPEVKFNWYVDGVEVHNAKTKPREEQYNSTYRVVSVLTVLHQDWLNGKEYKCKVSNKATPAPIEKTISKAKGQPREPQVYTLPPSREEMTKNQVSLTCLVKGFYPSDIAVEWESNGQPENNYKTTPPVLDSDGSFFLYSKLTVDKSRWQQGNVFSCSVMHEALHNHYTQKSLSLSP
light: DIVMTQSPATLSLSPGERATLSCTSSQSVYHANWLSWFQQKPGQPPKLLIYWASTLAYGVPSRFSGSGSGTDFTLTISSLQPEDAATYYCAGGYGGGRYAFGQGTKVEIKRTVAAPSVFIFPPSDEQLKSGTASVVCLLNNFYPREAKVQWKVDNALQSGNSQESVTEQDSKDSTYSLSSTLTLSKADYEKHKVYACEVTHQGLSSPVTKSFNRGEC
notes: Substitution introduced into M103205H795-SG1; EU numbering

KD fold (SG1 = 1) [7]: 1.2 fold | KD fold (SG1 = 1) [8]: 4.5 fold
B3: M103205H795-MY124/M103202L889-SK1 (antibody, human IgG1, kappa, name in EU numbering)
heavy: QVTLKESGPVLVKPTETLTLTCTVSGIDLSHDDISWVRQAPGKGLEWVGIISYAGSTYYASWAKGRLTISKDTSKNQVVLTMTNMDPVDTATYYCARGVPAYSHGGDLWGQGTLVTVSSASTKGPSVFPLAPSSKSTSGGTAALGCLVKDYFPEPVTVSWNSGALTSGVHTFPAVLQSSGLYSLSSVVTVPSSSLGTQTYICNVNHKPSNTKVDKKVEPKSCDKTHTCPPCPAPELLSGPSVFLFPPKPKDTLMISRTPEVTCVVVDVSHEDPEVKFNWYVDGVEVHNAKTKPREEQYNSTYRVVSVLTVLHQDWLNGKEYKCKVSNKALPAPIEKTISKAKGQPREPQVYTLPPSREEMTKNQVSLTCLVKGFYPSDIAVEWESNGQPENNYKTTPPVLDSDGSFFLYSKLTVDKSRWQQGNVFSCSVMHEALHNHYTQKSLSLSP
light: DIVMTQSPATLSLSPGERATLSCTSSQSVYHANWLSWFQQKPGQPPKLLIYWASTLAYGVPSRFSGSGSGTDFTLTISSLQPEDAATYYCAGGYGGGRYAFGQGTKVEIKRTVAAPSVFIFPPSDEQLKSGTASVVCLLNNFYPREAKVQWKVDNALQSGNSQESVTEQDSKDSTYSLSSTLTLSKADYEKHKVYACEVTHQGLSSPVTKSFNRGEC
notes: as for B2

EC50 (read off the curve) [9]: ~0.01 µg/mL | binding result [10]: no binding (tested: 10 ng/µL (log 1)) | EC50 (read off the curve) [11]: ~0.008 µg/mL | EC50 (read off the curve) [12]: ~0.02 µg/mL
B4: MS_MST1032Ha-G1m/MST1032La-k0MC (antibody, human IgG1, kappa, V domains shown)
VH: QSLEESGGRLVTPGGSLTVTCRVSGIDLSSYDISWVRQAPGKGLEWIGIISYAGSTYYASWAKGRFTISKTSTTVDLKMTSLTTEDTATYFCARGVPAYSTGGDLWGPGTLVTVSS
VL: AQVLTQTASSVSAAVGGTVTINCQSSQSVYDNNWLSWFQQKPGQPPKLLIYWASTLASGVPSRFKGSGSGTQFTLTISDLECDDAATYYCAGGYGGGLYAFGGGTKVEIKR
notes: Rabbit/human chimeric antibody; also called MST1032-G1m
